From US11091512B2, “Modulation of antigen immunogenicity by deleting epitopes recognized by NKT cells” (Imnate Sarl, priority 2010, dated 2021)

Tested on: CD4+ T cells and NKT cells
Assay: peripheral blood CD4+ T cells cultured with human dendritic cells loaded with natural or mutated antibody
Type: cell-based
Conditions: 5 to 7 days culture
Text: Monoclonal human antibodies of the IgG4 isotype were derived from the peripheral blood B lymphocytes by transformation with the Epstein-Barr virus. The genomic sequence of such antibodies was obtained from transformed B cells. A viral vector containing the corresponding cDNA sequence was constructed and used for transfection of CHO cells. All these methods are known in the art (see for instance, Jacquemin et al Blood 92: 496-506, 1998).
The hydrophobic aminoacid residues located in position 1 in the peptides of SEQ ID18 and SEQ ID20 were mutated to a serine and the mutated antibody produced by transfected CHO cells.
Peripheral blood CD4+ T cells obtained as above were exposed in culture medium to human dendritic cells (derived from human peripheral blood monocytes by methods known in the art) and loaded with either the antibody in natural configuration (SEQ ID21) or its mutated counterpart (SEQ ID22). After culturing the cells with CD4+ T cells for 5 to 7 days, the population of CD4+ T cells activated by either natural or mutated antibody was evaluated. CD4+ NKT cells were separated from CD4+ T cells using an antibody to NKG2D, a surface marker associated with NK or NKT cells only.

B1: SEQ ID22: mutated counterpart of the IgG4 antibody, position 1 residues of SEQ ID18 and SEQ ID20 motifs mutated to serine (protein, listed as Homo sapiens)
chain: ASTKGPSVFPLAPCSRSTSESTAALGCLVKDYFPEPVTVSWNSGALTSGVHTFPAVLQSSGLYSLSSVVTVPSSSLGTKTYTCNVDHKPSNTKVDKRVESKYGPPCPSCPAPEFLGGPSVFLFPPKPKDTLMISRTPEVTCVVVDVSQEDPEVQFNWYVDGVEVHNAKTKPREEQFNSTSRVVSVLTVLHQDWLNGKEYKCKVSNKGLPSSIEKTISKAKGQPREPQVYTLPPSQEEMTKNQVSLTCLVKGFYPSDIAVEWESNGQPENNYKTTPPVLDSDGSFFLYSRLTVDKSRWQEGNVFSCSVMSEALHNHYTQKSLSLSLGK
- activation of class II restricted CD4+ T cells: only activate class II restricted CD4+ T cells
- activation of NKT cells (NKT cells separated with antibody to NKG2D): not NKT cells
